Among the data in article PMC6125409 are Kd and average donor fluorescence lifetime values, retold here.

pKd: −log10 of the molar value. Like-named read-outs stand apart in the source and are kept apart here.

Experiment [1] deals with EpCAM ECD (Homo sapiens) (UniProt P16422). To be noted: cited from earlier work.
Experiment [2] shares this target. To be noted: cited from earlier work. The source holds these as a separate data set.
In experiment [3] the target is mCherry-EpFL (N-terminal fusion of mCherry to full-length EpCAM) (UniProt P16422). Briefly: FRET or BRET; FLIM-FRET, donor sfGFP and acceptor mCherry both N-terminal on EpFL, co-transfected in the same cell (cis; GFPEX/CherryEX), equimolar plasmids; HEK 293 T and HCT8 #L13 cells, fixed; whole cell membrane region. (In general: Bioluminescence resonance energy transfer reports proximity on the nanometre scale.)

In general, pKd refers to the Kd on a negative log10 scale, so that one unit is a factor of ten. As to “EpCAM cis-dimer ECD (from UniProt P16422)”, the pKd in the experiment with EpCAM ECD (Homo sapiens) [1] is 8.00.

Take “EpCAM trans-tetramer (dimer-dimer) ECD (from UniProt P16422)”: in the experiment with EpCAM ECD (Homo sapiens) [2], the pKd was 5.00.

In experiment [3], “sfGFP-EpFL (N-terminal fusion of sfGFP to full-length EpCAM) (from UniProt P16422 24-314) (receptor)” yielded an average donor fluorescence lifetime of 1.6 ns.
